Measurements as given in publication PMC3361065 (Biochemistry, 2012).

T1: yeast MtRNAP with residues 1-264 deleted (ΔN2) (yeast, UniProt P13433 265-1351)
T1 sequence (looked up): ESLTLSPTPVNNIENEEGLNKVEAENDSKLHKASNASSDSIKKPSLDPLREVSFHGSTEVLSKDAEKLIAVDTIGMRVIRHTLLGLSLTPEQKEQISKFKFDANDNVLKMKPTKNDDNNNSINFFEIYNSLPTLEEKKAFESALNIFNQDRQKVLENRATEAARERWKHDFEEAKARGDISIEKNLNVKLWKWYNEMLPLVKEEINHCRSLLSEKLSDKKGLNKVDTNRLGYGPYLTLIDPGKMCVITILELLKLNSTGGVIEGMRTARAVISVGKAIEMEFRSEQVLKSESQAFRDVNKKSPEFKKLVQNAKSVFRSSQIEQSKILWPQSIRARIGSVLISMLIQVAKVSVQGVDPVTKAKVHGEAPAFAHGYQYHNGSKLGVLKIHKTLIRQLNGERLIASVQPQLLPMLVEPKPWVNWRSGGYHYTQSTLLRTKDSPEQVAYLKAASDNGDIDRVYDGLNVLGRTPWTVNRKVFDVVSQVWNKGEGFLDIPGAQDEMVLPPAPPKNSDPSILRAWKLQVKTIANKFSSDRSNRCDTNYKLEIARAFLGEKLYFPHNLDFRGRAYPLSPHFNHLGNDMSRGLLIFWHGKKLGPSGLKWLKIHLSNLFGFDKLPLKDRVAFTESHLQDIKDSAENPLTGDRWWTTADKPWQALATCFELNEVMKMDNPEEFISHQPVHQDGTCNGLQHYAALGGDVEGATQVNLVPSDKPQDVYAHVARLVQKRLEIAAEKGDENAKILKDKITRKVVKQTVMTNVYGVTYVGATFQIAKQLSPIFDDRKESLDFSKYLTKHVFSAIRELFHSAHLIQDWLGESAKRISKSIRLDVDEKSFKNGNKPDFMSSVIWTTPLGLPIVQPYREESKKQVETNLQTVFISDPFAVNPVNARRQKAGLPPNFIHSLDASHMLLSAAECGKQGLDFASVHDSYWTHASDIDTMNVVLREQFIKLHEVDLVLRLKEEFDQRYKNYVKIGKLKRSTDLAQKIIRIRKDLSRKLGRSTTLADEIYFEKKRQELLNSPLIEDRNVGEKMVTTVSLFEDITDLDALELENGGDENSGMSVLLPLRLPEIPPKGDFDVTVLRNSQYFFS

T2: yeast MtRNAP with residues 1-358 deleted (ΔN1) (yeast, UniProt P13433 359-1351)
T2 sequence (looked up): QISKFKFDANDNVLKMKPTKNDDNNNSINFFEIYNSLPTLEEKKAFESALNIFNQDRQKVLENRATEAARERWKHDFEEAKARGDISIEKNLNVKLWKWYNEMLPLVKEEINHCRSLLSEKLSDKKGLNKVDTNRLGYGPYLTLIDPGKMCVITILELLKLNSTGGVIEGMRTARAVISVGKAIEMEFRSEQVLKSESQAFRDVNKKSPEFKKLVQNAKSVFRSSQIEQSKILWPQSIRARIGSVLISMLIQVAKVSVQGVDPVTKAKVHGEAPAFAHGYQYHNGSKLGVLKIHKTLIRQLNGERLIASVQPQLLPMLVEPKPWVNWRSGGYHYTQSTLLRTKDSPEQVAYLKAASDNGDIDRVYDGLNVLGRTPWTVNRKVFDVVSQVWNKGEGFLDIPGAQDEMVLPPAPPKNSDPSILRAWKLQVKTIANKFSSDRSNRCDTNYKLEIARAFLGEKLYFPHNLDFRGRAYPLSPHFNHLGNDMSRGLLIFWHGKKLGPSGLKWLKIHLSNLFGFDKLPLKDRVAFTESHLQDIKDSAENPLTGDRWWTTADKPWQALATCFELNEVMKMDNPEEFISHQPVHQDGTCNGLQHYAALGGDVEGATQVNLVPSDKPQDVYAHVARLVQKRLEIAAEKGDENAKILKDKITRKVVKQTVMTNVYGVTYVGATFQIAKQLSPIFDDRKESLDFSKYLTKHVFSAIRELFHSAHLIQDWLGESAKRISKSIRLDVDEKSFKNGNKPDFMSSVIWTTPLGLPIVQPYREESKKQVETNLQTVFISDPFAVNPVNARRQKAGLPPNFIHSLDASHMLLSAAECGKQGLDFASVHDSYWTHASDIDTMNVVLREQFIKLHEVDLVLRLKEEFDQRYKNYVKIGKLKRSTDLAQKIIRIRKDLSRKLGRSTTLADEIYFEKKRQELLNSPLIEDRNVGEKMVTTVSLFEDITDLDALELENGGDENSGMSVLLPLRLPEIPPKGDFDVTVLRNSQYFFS


How the values were obtained:
[1] = biological target: yeast mitochondrial RNA polymerase (scMtRNAP) WT;MTF1 (yeast mitochondrial transcription factor) (Saccharomyces cerevisiae?;Saccharomyces …, UniProt P13433;P14908 1-1351;1-341, |); assay: EMSA
yeast mitochondrial RNA polymerase (scMtRNAP) WT;MTF1 (yeast mitochondrial transcription factor), sequence (P13433 whole entry, chain 1 of 2, one chain of several, the tested form may be a part): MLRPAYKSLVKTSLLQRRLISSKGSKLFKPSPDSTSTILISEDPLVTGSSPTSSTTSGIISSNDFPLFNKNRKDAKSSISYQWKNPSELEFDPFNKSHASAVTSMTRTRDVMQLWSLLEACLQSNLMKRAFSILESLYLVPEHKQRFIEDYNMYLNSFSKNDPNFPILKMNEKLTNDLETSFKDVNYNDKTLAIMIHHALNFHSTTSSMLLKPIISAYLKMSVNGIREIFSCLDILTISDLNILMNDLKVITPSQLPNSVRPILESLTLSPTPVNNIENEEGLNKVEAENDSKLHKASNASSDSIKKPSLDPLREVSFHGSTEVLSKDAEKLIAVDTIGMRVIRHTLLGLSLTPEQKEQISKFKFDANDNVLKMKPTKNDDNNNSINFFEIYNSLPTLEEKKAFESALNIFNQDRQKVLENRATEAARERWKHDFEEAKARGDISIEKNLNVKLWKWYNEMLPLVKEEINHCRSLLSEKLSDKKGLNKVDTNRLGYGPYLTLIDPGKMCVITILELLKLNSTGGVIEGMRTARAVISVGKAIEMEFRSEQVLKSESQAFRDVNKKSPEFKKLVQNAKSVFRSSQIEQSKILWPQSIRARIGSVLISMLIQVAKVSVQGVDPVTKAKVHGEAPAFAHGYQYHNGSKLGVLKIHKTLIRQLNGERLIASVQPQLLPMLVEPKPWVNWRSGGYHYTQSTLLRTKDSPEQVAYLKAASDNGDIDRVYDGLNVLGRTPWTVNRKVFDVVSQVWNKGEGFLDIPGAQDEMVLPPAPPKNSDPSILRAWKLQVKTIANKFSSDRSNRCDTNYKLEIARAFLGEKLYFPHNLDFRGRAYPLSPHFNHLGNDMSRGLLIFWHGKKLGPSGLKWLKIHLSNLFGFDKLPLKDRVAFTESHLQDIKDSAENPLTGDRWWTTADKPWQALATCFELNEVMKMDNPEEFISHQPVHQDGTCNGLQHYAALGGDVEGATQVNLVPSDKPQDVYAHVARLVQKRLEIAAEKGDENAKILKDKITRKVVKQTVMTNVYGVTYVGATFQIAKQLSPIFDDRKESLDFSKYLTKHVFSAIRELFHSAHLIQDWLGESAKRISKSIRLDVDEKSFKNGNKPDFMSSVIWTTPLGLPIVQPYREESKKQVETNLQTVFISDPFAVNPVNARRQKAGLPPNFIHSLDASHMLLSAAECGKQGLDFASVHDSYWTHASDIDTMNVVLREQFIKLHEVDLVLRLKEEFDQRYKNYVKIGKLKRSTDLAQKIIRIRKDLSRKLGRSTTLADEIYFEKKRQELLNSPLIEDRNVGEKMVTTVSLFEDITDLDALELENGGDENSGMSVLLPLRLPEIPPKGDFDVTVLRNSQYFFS

[2] = biological target: T1, yeast MtRNAP with residues 1-264 …; assay: native gel or EMSA
[3] = biological target: T2, yeast MtRNAP with residues 1-358 …; assay: ultrafiltration retention

binding result [2]	binding result [3]	Binder	Kd [1]
–	–	33 bp Duplex promoter (dsDNA) DNA 1: CGCGTAAAACTATTCTTTATTACTTATATCGCG DNA 2: CGCGATATAAGTAATAAAGAATAGTTTTACGCG	480 nM
binds	binds	yeast mitochondrial transcription factor MTF1 (natural protein, UniProt P14908 1-341, looked up) MSVPIPGIKDISKLKFFYGFKYLWNPTVYNKIFDKLDLTKTYKHPEELKVLDLYPGVGIQSAIFYNKYCPRQYSLLEKRSSLYKFLNAKFEGSPLQILKRDPYDWSTYSNLIDEERIFVPEVQSSDHINDKFLTVANVTGEGSEGLIMQWLSCIGNKNWLYRFGKVKMLLWMPSTTARKLLARPGMHSRSKCSVVREAFTDTKLIAISDANELKGFDSQCIEEWDPILFSAAEIWPTKGKPIALVEMDPIDFDFDVDNWDYVTRHLMILKRTPLNTVMDSLGHGGQQYFNSRITDKDLLKKCPIDLTNDEFIYLTKLFMEWPFKPDILMDFVDMYQTEHSG	–
